According to article PMC3906837:

Columns and labels:
[1] = target: EcoKI Type I RM enzyme (E. coli (endogenous in E. coli NM1049(DE3))) (UniProt P08956)
[2] = target: L127E ArdA (Streptococcus faecalis (Tn916 conjugative transposon)); test: AUC; sedimentation equilibrium at 15 μM (monomers); 17 000, 27 000 and 35 000 r.p.m.; 20 °C; 200 mM NaCl, 20 mM Tris, 20 mM MES, 1 mM TCEP, pH 6.5; SEDPHAT; dimer to monomers
[3] = target: WT ORF18 ArdA (Streptococcus faecalis (Tn916 conjugative transposon)); test: AUC; sedimentation equilibrium at 3.0 μM and 0.6 μM (monomers); 17 000, 27 000 and 35 000 r.p.m.; 20 °C; 200 mM NaCl, 20 mM Tris, 20 mM MES, 1 mM TCEP, pH 6.5; SEDPHAT
[4] = target: WT ORF18 ArdA (Streptococcus faecalis (Tn916 conjugative transposon)); test: AUC; sedimentation equilibrium at 15 μM (monomers); 17 000, 27 000 and 35 000 r.p.m.; 20 °C; 200 mM NaCl, 20 mM Tris, 20 mM MES, 1 mM TCEP, pH 6.5; SEDPHAT; dimer to monomers

Substance	antimodification in vivo: titre ratio of phage λv.0 recovered from E. coli NM1049(DE3) expressing the ArdA protein (WT ORF18 ArdA 122.0; vector 0.9) [1]	Kd [2] [µM]	stoichiometry N [2]	stoichiometry N [3]	stoichiometry N [4]
L127E ArdA (natural protein)	1	10	2	–	–
WT ORF18 ArdA (natural protein)	–	–	–	2	2
